Measured values taken from patent US20250154581A1 (BGI SHENZHEN, published 2025).

B1: Spytag003-DDA (enzyme)
chain: RGVPHIVMVDAYKRYKGGSGGSGGSGGSGGSGGSMTFDDLTEGQKNAFNIVMKAIKEKKHHVTINGPAGTGKTTLTKFIIEALISTGGTGIILAAPTHAAKKILSKLSGKEASTIHSILKINPVTYEENVLFEQKEVPDLAKCRVLICDEVSMYDRKLFKILLSTIPPWCTIIGIGDNKQIRPVEPGENTAYISPFFTHKDFYQCELTEVKRSNAPIIDVATDVRNGKWNYDKVVDGHGVRGFTGDTALRDFMVNYFSIVKSLDDLFENRVMAFTNKSVDKLNSIIRKKIFETDKDFIVGEIIVMQEPLFKTYKIDGKPVSEIIFNNGQLVRIIEAEYTSTFVKARGVPGEYLIRHWDLTVETYGDDEYYREKIKIISSDEELYKFNLFLAKTAETYKNWNKGGKAPWSDFWDAKSQFSKVKALPASTFHKAQGMSVDRAFIYTPCIHYADVELAQQLLYVGVTRGRYDVFYV
notes: Expressed from pET.28a(+)-6*His-Spytag003-DDA; also called 6*His-Spytag003-DDA; motor protein Spytag003-DDA
B2: Spycatcher003-MspA (other)
chain: MVTTLSGLSGEQGPSGDMTTEEDSATHIKFSKRDEDGRELAGATMELRDSSGKTISTWISDGHVKDFYLYPGKYTFVETAAPDGYEVATPIEFTVNEDGQVTVDGEATEGDAHTGGSGGSGGSGLDNELSLVDGQDRTLTVQQWDTFLNGVFPLDRNRLTREWFHSGRAKYIVAGPGADEFEGTLELGYQIGFPWSLGVGINFSYTTPNILIDDGDITAPPFGLNSVITPNLFPGVSISADLGNGPGIQEVATFSVDVSGAEGGVAVSNAHGTVTGAAGGVLLRPFARLIASTGDSVTTYGEPWNMN
notes: Subunit expressed as 6*His-Spycatcher003-MspA; also called 6*His-Spycatcher003-MspA

What was measured:
[1] = target: T1, Spycatcher003-MspA(MspA)7 (Mycolicibacterium smegmatis (strain …, UniProt A0QR29 28-211)); assay: mixed 1:1.2 (octamer:Spytag003-DDA), 25 C 30 min, covalent Spytag003/Spycatcher003 coupling; Superose 6 Increase size exclusion chromatography
T1 construct: Octamer of one Spycatcher003-MspA and seven Strep-MspA subunits, co-expressed in E. coli; also called Spycatcher003-labeled MspA octamer; MspA octamer formed by Spycatcher003-MspA and MspA in a ratio of 1:7
Protocol: The Spycatcher003-labeled MspA octamer obtained in the above step 4 was mixed with the Spytag003-DDA obtained in the above step 3 at a ratio of 1:1.2, and reacted at 25° C. for 30 minutes, the Superose 6 increase is used for size exclusion chromatography (Purification Buffer: 150 mM NaCl, 20 mM Tris, 0.05% Tween20) to remove excess Spytag003-DDA protein, and the DDA-Spytag/Spycatcher-MspA complex was collected.

[2] = target: T2, Strep-MspA (Mycolicibacterium smegmatis (strain …, UniProt A0QR29 28-211)); assay: co-expression, Strep column co-purification, nickel column imidazole gradient and ion exchange separation
T2 construct: Subunit co-expressed with 6*His-Spycatcher003-MspA; Called simply MspA where the 1:7 complex is described
Protocol: In the present application, an MspA octamer which only contains one molecule of Spycatcher003 was obtained through the following method. First, the bacterial cells co-expressing 6*His-Spycatcher003-MspA and Strep-MspA obtained in the above step 2 (2) were disrupted by high pressure (Lysis Buffer: 150 mM NaCl, 20 mM Tris, 1% DDM) and purified by Strep column (Wash Buffer: 150 mM NaCl, 20 mM Tris, 0.05% Tween 20; Elution buffer: 150 mM NaCl, 20 mM Tris, 10 mM desthiobiotin) to obtain complexes with different ratios of the two proteins. […] From this, the Spycatcher003-labeled MspA octamer was obtained.

Binder	binding result [1]	binding result [2]
B1	binds	–
B2	–	binds
